Data published in publication PMC6174329, “Functional Characterization of Arabidopsis PHL4 in Plant Response to Phosphate Starvation”.

T1: MBP-PHL4-His (Arabidopsis thaliana? (Columbia-0?), UniProt Q8GXC2 1-397)
T1 sequence: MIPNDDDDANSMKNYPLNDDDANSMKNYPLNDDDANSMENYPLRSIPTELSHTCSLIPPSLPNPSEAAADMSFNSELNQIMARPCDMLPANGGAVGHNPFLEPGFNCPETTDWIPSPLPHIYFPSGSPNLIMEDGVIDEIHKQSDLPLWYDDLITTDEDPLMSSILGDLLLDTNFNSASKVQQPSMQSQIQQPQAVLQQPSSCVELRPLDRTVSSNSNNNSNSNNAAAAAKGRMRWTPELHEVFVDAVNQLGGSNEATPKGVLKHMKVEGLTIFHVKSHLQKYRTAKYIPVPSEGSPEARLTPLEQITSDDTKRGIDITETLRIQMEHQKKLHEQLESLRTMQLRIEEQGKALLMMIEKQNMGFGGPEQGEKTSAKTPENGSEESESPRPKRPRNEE


Tests used:
MBP-PHL4-His [1] = target: T1, MBP-PHL4-His; assay: EMSA; 4 ug protein, 10 fmol probe; EMSA as described by Sun et al. (2016); buffer, salt, pH and temperature not given; 4 ug MBP-PHL4, 10 fmol biotin probe; details: protein: recombinant; tags: N-terminal MBP; C-terminal 6xHis; chain copies: 2; label: biotin (on F strand); blunt
MBP-PHL4-His [2] = target: T1, MBP-PHL4-His; assay: competition; unlabeled probe at 200:1, 800:1 and 1200:1 molar excess over labeled probe; EMSA as described by Sun et al. (2016); buffer, salt, pH and temperature not given; 4 ug MBP-PHL4, 10 fmol biotin probe; details: protein: recombinant; tags: N-terminal MBP; C-terminal 6xHis; chain copies: 2; blunt

Binder | binding result (MBP-PHL4-His [1]) | binding result (MBP-PHL4-His [2])
2xP1BS probe (dsDNA) DNA 1: ATTAACGAATATTCCGTACAATTAACGAATATTCCGTACA DNA 2: TGTACGGAATATTCGTTAATTGTACGGAATATTCGTTAAT | binds | –
2xP1BS unlabeled competitor (dsDNA) DNA 1: ATTAACGAATATTCCGTACAATTAACGAATATTCCGTACA DNA 2: TGTACGGAATATTCGTTAATTGTACGGAATATTCGTTAAT | – | binds
